Reference: article PMC11582362 (2023)

B1: full length ADAR1 p110, wild type (FLAG-tagged and HA-tagged copies) [human] / itself (parent complex)
chain: MAEIKEKICDYLFNVSDSSALNLAKNIGLTKARDINAVLIDMERQGDVYRQGTTPPIWHLTDKKRERMQIKRNTNSVPETAPAAIPETKRNAEFLTCNIPTSNASNNMVTTEKVENGQEPVIKLENRQEARPEPARLKPPVHYNGPSKAGYVDFENGQWATDDIPDDLNSIRAAPGEFRAIMEMPSFYSHGLPRCSPYKKLTECQLKNPISGLLEYAQFASQTCEFNMIEQSGPPHEPRFKFQVVINGREFPPAEAGSKKVAKQDAAMKAMTILLEEAKAKDSGKSEESSHYSTEKESEKTAESQTPTPSATSFFSGKSPVTTLLECMHKLGNSCEFRLLSKEGPAHEPKFQYCVAVGAQTFPSVSAPSKKVAKQMAAEEAMKALHGEATNSMASDNQPEGMISESLDNLESMMPNKVRKIGELVRYLNTNPVGGLLEYARSHGFAAEFKLVDQSGPPHEPKFVYQAKVGGRWFPAVCAHSKKQGKQEAADAALRVLIGENEKAERMGFTEVTPVTGASLRRTMLLLSRSPEAQPKTLPLTGSTFHDQIAMLSHRCFNTLTNSFQPSLLGRKILAAIIMKKDSEDMGVVVSLGTGNRCVKGDSLSLKGETVNDCHAEIISRRGFIRFLYSELMKYNSQTAKDSIFEPAKGGEKLQIKKTVSFHLYISTAPCGDGALFDKSCSDRAMESTESRHYPVFENPKQGKLRTKVENGEGTIPVESSDIVPTWDGIRLGERLRTMSCSDKILRWNVLGLQGALLTHFLQPIYLKSVTLGYLFSQGHLTRAICCRVTRDGSAFEDGLRHPFIVNHPKVGRVSIYDSKRQSGKTKETSVNWCLADGYDLEILDGTRGTVDGPRNELSRVSKKNIFLLFKKLCSFRYRRDLLRLSYGEAKKAARDYETAKNYFKKGLKDMGYGNWISKPQEEKNFYLCPV

Variants of: B1
Assay: co-immunoprecipitation (anti-FLAG IP, anti-HA western blot, bands quantified with ImageJ); HEK293T cells; in the presence of RNases; n = 3; parent: 70; read off a plot

Row | response [%] | Variant
1 | ~10 | chain 1 V452A, chain 1 D453Q, chain 1 W473V, chain 1 C478S
